Results reported in publication PMC8688574 (The Journal of Biological Chemistry, 2021).
Each block holds one molecule with its values, some of them ahead of it.

Assays:
[1] = target: T1, catalytic core of human ATL1 WT / N417ins (Homo sapiens, UniProt Q8WXF7); test: limited proteolysis (proteinase K) protection; type: binding; settings: 2 mM GDP; MgCl2, pH 7.5; on ice
T1 construct: catalytic core (G + middle domains), WT residues 1-449 (N417ins 1-450), C-terminal His10 tag kept, E. coli BL21(DE3)
T1 sequence (Q8WXF7 1-449): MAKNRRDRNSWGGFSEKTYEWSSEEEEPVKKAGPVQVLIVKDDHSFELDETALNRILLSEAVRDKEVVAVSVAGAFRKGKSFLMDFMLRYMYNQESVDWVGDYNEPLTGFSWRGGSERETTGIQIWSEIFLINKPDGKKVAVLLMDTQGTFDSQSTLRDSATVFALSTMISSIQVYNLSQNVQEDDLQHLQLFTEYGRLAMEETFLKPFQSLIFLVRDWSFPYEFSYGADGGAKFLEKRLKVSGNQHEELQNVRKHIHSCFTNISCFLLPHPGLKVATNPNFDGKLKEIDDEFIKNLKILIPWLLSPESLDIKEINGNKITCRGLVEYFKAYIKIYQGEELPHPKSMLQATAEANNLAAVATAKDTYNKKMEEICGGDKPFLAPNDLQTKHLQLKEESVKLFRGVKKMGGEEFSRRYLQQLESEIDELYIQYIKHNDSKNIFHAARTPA

[2] = target: T2, catalytic core of human ATL1 WT / N417ins (Homo sapiens, UniProt Q8WXF7); test: SEC-MALS, nucleotide-dependent dimerization; type: binding; settings: 2 mM GppNHp; 4 mM MgCl2, pH 7.5; 50 μM protein
T2 construct: catalytic core (G + middle domains), WT residues 1-449 (N417ins 1-450), C-terminal His10 tag kept, E. coli BL21(DE3)
T2 sequence (Q8WXF7 with tags, fused parts or gaps INS416N): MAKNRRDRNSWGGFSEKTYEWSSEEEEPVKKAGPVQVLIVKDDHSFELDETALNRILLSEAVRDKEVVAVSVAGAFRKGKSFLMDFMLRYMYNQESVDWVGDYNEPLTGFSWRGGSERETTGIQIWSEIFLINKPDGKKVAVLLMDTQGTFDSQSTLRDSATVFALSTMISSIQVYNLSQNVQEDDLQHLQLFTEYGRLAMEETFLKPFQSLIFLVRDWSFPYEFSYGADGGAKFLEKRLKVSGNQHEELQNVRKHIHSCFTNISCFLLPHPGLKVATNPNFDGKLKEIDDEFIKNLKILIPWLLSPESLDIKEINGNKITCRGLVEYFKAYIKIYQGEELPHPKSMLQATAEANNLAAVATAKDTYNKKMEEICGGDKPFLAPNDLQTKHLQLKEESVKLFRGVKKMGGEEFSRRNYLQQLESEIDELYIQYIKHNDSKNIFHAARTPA

[3] = target: T1, catalytic core of human ATL1 WT / N417ins; test: SEC-MALS, nucleotide-dependent dimerization; type: binding; settings: 2 mM GppNHp; 4 mM MgCl2, pH 7.5; 50 μM protein; remark: listed apart in the source
[4] = target: ATL1 N417ins catalytic core, G domain FRET construct; test: intermolecular FRET (G domain FRET); settings: equilibrated for 1 h before measurement, read off a plot
[5] = target: ATL1 N417ins catalytic core C375A K400C, labelled on the middle domain with AlexaFluor-488 or AlexaFluor-647; test: intermolecular FRET (middle domain FRET); settings: equilibrated for 1 h before measurement, read off a plot
[6] = target: the molecule itself; test: SEC-MALS; 50 μM protein loaded, preincubated with 2 mM GppNHp; Superdex Increase 200 10/300 GL; 25 mM Tris-HCl pH 7.5, 100 mM NaCl, 2 mM EGTA, 4 mM MgCl2
[7] = apo (no nucleotide), parent: est. 0.0083

Molecule: Nc1nc2c(ncn2[C@@H]2O[C@H](COP(=O)(O)OP(=O)(O)O)[C@@H](O)[C@H]2O)c(=O)[nH]1 [GDP]
limited proteolysis (proteinase K) protection [1]: when bound to GDP, the WT protein is largely protected from degradation

Molecule: Nc1nc2c(ncn2[C@@H]2O[C@H](COP(=O)(O)OP(=O)(O)NP(=O)(O)O)[C@@H](O)[C@H]2O)c(=O)[nH]1 [GppNHp]
SEC-MALS, nucleotide-dependent dimerization [2]: Only a minor fraction of the mutant protein eluted as a monomer upon incubation with GppNHp
SEC-MALS, nucleotide-dependent dimerization [3]: dimerized in the presence of GppNHp and GDP•AlF4^−

response ([4]; GDP, parent: est. 0.014): 0.011
response ([4]; GDP•AlF4-, parent: est. 0.076): 0.078
response [4, 7]: 0.009
Molecule: ATL1 WT catalytic core, G domain FRET construct N417ins

response ([5]; GDP, parent: est. 0.0098): 0.011
response ([5]; GDP•AlF4-, parent: est. 0.061): 0.066
response [5, 7]: 0.009
Molecule: ATL1 WT catalytic core, middle domain FRET construct N417ins

B1: human ATL1 WT catalytic core (residues 1–449) (domain or fragment, UniProt Q8WXF7-1 1-449, looked up)
chain: MAKNRRDRNSWGGFSEKTYEWSSEEEEPVKKAGPVQVLIVKDDHSFELDETALNRILLSEAVRDKEVVAVSVAGAFRKGKSFLMDFMLRYMYNQESVDWVGDYNEPLTGFSWRGGSERETTGIQIWSEIFLINKPDGKKVAVLLMDTQGTFDSQSTLRDSATVFALSTMISSIQVYNLSQNVQEDDLQHLQLFTEYGRLAMEETFLKPFQSLIFLVRDWSFPYEFSYGADGGAKFLEKRLKVSGNQHEELQNVRKHIHSCFTNISCFLLPHPGLKVATNPNFDGKLKEIDDEFIKNLKILIPWLLSPESLDIKEINGNKITCRGLVEYFKAYIKIYQGEELPHPKSMLQATAEANNLAAVATAKDTYNKKMEEICGGDKPFLAPNDLQTKHLQLKEESVKLFRGVKKMGGEEFSRRYLQQLESEIDELYIQYIKHNDSKNIFHAARTPA
notes: atlastin-1 (ATL1/SPG3A), human, catalytic core of G and middle domains, residues 1-449; pET21 vector; Monomer without nucleotide or with GDP, dimer with GppNHp or GDP•AlF4-; Theoretical monomer mass 52.8 kDa; also called atlastin-1; SPG3A; source: E. coli BL21(DE3), purified (Ni-NTA, desalting, S200 gel filtration); not shown: His10, C-terminal, kept
stoichiometry N [6]: 2

B2: human ATL1 N417ins catalytic core (residues 1–450) (domain or fragment, UniProt Q8WXF7-1 1-450, looked up)
chain: MAKNRRDRNSWGGFSEKTYEWSSEEEEPVKKAGPVQVLIVKDDHSFELDETALNRILLSEAVRDKEVVAVSVAGAFRKGKSFLMDFMLRYMYNQESVDWVGDYNEPLTGFSWRGGSERETTGIQIWSEIFLINKPDGKKVAVLLMDTQGTFDSQSTLRDSATVFALSTMISSIQVYNLSQNVQEDDLQHLQLFTEYGRLAMEETFLKPFQSLIFLVRDWSFPYEFSYGADGGAKFLEKRLKVSGNQHEELQNVRKHIHSCFTNISCFLLPHPGLKVATNPNFDGKLKEIDDEFIKNLKILIPWLLSPESLDIKEINGNKITCRGLVEYFKAYIKIYQGEELPHPKSMLQATAEANNLAAVATAKDTYNKKMEEICGGDKPFLAPNDLQTKHLQLKEESVKLFRGVKKMGGEEFSRRNYLQQLESEIDELYIQYIKHNDSKNIFHAARTPAT
notes: atlastin-1 (ATL1/SPG3A), human, catalytic core with the patient's in-frame insertion of an asparagine between R416 and Y417; residues 1-450. numbers count on: the mutant protein with the extra residue (1-449 of the wild type plus N417); pET21 vector; construct for enzyme assays, SEC-MALS and tethering; Theoretical monomer mass 52.9 kDa; also called N417ins mutant protein; …
stoichiometry N [6]: 2
